These results are taken from patent publication US20090239794A1, “HCV F PROTEIN AND USES THEREOF” (priority 2004, published 2009).

Test [1] has as its target Fmut8Δ11 protein (recombinant ARFP, truncated HCV-1a F protein lacking the first 11 N-terminal amino acids) (HCV-1a) (UniProt P0C045). The test can be described thus: ELISA, serum 1/50, day 14.
Test [2] shares this target. As to the kind of experiment: ELISA, serum 1/50, day 29.
Test [3] shares this target. As to the kind of experiment: ELISA, serum 1/50, day 52. For orientation: ELISA stands for enzyme-linked immunosorbent assay.
For test [4] the target is unchanged. As to the kind of experiment: ELISA, serum 1/100, day 14.
The target is the same in test [5]. The test can be described thus: ELISA, serum 1/100, day 29.
Test [6] has the same target. As to the kind of experiment: ELISA, serum 1/100, day 52.
Test [7] shares this target. As to the kind of experiment: ELISA, serum 1/200, day 14.
For test [8] the target is unchanged. The test can be described thus: ELISA, serum 1/200, day 29.
Test [9] shares this target. As to the kind of experiment: ELISA, serum 1/200, day 52.
For test [10] the target is unchanged. The test can be described thus: ELISA, serum 1/400, day 14.
The target is the same in test [11]. The test can be described thus: ELISA, serum 1/400, day 29.
The target is the same in test [12]. The test can be described thus: ELISA, serum 1/400, day 52.
Test [13] has the same target. As to the kind of experiment: ELISA, serum 1/800, day 14.
The target is the same in test [14]. The test can be described thus: ELISA, serum 1/800, day 29.
For test [15] the target is unchanged. The test can be described thus: ELISA, serum 1/800, day 52.
The target is the same in test [16]. As to the kind of experiment: ELISA, serum 1/1600, day 14.
Test [17] has the same target. The test can be described thus: ELISA, serum 1/1600, day 29.
The target is the same in test [18]. The test can be described thus: ELISA, serum 1/1600, day 52.
In test [19] the target is Fmut8Δ11 protein (recombinant ARFP (hepatitis C virus subtype 1a (HCV-1a)) (UniProt P0C045)). The test can be described thus: ELISA Control 4: ARFP, no first antibody, secondary alone; row 1/50.
Test [20] addresses Fmut8Δ11 protein (recombinant ARFP, truncated HCV-1a F protein lacking the first 11 N-terminal amino acids) (HCV-1a) (UniProt P0C045). As to the kind of experiment: ELISA Control 4: ARFP, no serum, secondary antibody alone; row 1/50.
Test [21] concerns the target Fmut8Δ11 protein (recombinant ARFP (hepatitis C virus subtype 1a (HCV-1a)) (UniProt P0C045)). As to the kind of experiment: ELISA Control 4: ARFP, no first antibody, secondary alone; row 1/100.
Test [22] shares this target. The test can be described thus: ELISA Control 4: ARFP, no first antibody, secondary alone; row 1/200.
The target is the same in test [23]. As to the kind of experiment: ELISA Control 4: ARFP, no first antibody, secondary alone; row 1/400.
Test [24] shares this target. As to the kind of experiment: ELISA Control 4: ARFP, no first antibody, secondary alone; row 1/800.
Test [25] concerns the target Fmut8Δ11 protein (recombinant ARFP, truncated HCV-1a F protein lacking the first 11 N-terminal amino acids) (HCV-1a) (UniProt P0C045). As to the kind of experiment: ELISA Control 4: ARFP, no serum, secondary antibody alone; row 1/100.
Test [26] shares this target. The test can be described thus: ELISA Control 4: ARFP, no serum, secondary antibody alone; row 1/200.
The target is the same in test [27]. The test can be described thus: ELISA Control 4: ARFP, no serum, secondary antibody alone; row 1/400.
The target is the same in test [28]. As to the kind of experiment: ELISA Control 4: ARFP, no serum, secondary antibody alone; row 1/800.
Test [29] has as its target Fmut8Δ11 protein (recombinant ARFP (hepatitis C virus subtype 1a (HCV-1a)) (UniProt P0C045)). The test can be described thus: ELISA Control 4: ARFP, no first antibody, secondary alone; row 1/1600.
Test [30] deals with Fmut8Δ11 protein (recombinant ARFP, truncated HCV-1a F protein lacking the first 11 N-terminal amino acids) (HCV-1a) (UniProt P0C045). As to the kind of experiment: ELISA Control 4: ARFP, no serum, secondary antibody alone; row 1/1600.

For “serum of mouse 28, protocol 2, mock immunization (PBS) (antibody)”, the OD410 in [1] came out at 0.261; in test [2], 0.354; in test [3] it was 0.165; in test [4], 0.179; in [5], 0.204; in [6], 0.141. The OD410 was found to be 0.146 in [7]; 0.167 in [8]; 0.117 in [9]; 0.133 in test [10]; 0.143 in test [11]; 0.119 in test [12]. Besides, the OD410 in [13] worked out at 0.122; in test [14] it was 0.128; in test [15] it was 0.107; in test [16], 0.114; in [17] it was 0.128; in test [18], 0.123.

Consider “serum of mouse 17, protocol 2, mock immunization (PBS) (antibody)”, for which the OD410 in [1] came to 0.67; in test [2], 0.754; in test [3] it was 0.5; in [4], 0.487; in test [5], 0.269; in [6] it was 0.286. For the same substance, the OD410 in test [7] was 0.321; in [8], 0.191; in test [9], 0.185; in test [10], 0.248; in test [11], 0.138; in test [12] it was 0.142. Moreover, the OD410 in test [13] came to 0.184; in test [14], 0.119; in test [15] it was 0.125; in test [16] it was 0.159; in [17], 0.112; in test [18], 0.125.

In the case of “AP conjugated goat anti-mouse Ig [G, A, M] (antibody)”, the OD410 in [19] was determined as 0.194 OD410; in test [20], 0.131; in test [21], 0.127 OD410; in test [22], 0.106 OD410; in test [23], 0.11 OD410; in [24], 0.109 OD410. Also, the OD410 turned out to be 0.129 in [25]; 0.108 in [26]; 0.111 in test [27]; 0.112 in test [28]; 0.109 OD410 in [29]; 0.111 in [30].

For the substance “serum of mouse 14, protocol 2, mock immunization (PBS) (antibody)”, the OD410 in test [1] is 0.212; in [2], 0.246; in test [3], 0.288; in test [4], 0.171; in test [5], 0.156; in [6] it was 0.224. For the same substance, the OD410 came out at 0.178 in [7]; 0.143 in [8]; 0.156 in test [9]; 0.151 in test [10]; 0.126 in test [11]; 0.163 in test [12]. In addition, the OD410 in test [13] came to 0.15; in [14] it was 0.123; in [15] it was 0.159; in [16], 0.143; in test [17], 0.124; in test [18], 0.145.

Consider “serum of mouse 26, protocol 2, mock immunization (PBS) (antibody)”, for which the OD410 is 0.281 in test [1]; 0.416 in test [2]; 0.203 in test [3]; 0.193 in test [4]; 0.178 in test [5]; 0.146 in test [6]. In addition, the OD410 stood at 0.146 in [7]; 0.154 in [8]; 0.123 in test [9]; 0.133 in test [10]; 0.144 in test [11]; 0.12 in test [12]. Further, the OD410 in [13] amounted to 0.133; in test [14], 0.144; in test [15], 0.114; in [16], 0.126; in test [17], 0.137; in test [18], 0.118.
